# Test results as given in US20230083243A1 (VEGA THERAPEUTICS, published 2023).
# T1: human Protein S (human, UniProt P07225 42-676)
# T1 construct: also called ProS; ProS1
# T1 sequence: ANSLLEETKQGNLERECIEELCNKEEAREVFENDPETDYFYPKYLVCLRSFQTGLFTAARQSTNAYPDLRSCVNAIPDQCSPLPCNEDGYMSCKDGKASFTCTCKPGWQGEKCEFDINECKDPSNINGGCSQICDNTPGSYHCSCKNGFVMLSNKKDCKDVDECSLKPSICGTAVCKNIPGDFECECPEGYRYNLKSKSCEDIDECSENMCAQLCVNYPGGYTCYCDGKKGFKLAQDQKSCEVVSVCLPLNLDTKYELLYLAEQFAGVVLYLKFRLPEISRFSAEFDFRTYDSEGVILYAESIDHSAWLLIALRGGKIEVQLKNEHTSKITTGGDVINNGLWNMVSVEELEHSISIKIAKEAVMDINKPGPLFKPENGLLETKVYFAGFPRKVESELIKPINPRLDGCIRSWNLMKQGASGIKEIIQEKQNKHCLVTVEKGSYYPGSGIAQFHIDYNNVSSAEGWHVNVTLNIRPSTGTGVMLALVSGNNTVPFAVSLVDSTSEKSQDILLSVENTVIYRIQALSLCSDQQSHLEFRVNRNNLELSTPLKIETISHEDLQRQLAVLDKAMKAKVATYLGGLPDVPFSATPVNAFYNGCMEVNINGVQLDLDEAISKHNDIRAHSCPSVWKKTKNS
# B1: Antibody 7 (antibody, V domains shown)
# VH: QLQLQESGPGLVKPSETLSLTCTVSGGSISSSSYYWGWIRQPPGKGLEWIGNIYYSGNTYYNPSLKSRVTISVDTSKNQFSLKLSSMTAADTAVYYCARCSGYGYSSGRSYFDYWGQETLVTVSS
# VL: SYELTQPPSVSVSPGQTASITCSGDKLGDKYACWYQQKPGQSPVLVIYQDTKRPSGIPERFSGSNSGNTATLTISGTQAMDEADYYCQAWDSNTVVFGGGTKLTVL
# notes: Same variable regions as Antibody 19
# B2: Antibody 3 (antibody, V domains shown)
# VH: EVQLVESGGGLVQPGRSLRLSCAASGFTFDDYAMHWVRQAPGKGLEWVSGITWNSGNIGYADSVKGRFTISRDNAKNSLYLHMNSLRIEDTAFYYCAKGRAVSDTFDIWGQGTMVTVSS
# VL: SYELNQPPSVSVSPGQTASITCSGDKLGDKYASWYQQKPGQSPVVAIYQNSKRPSGIPERFSASNSGNTATLTISGTQALDEADYYCQAWDSSTWVFGGGTKLTVL
# notes: Same variable regions as Antibody 15
# B3: Antibody 6 (antibody, V domains shown)
# VH: QVQLQESGPGLVKPSETLSLTCTVSGGSISNYYWNWIRQPPGKGLEWIGYIYYIGITDYNPSLKSRVTISVDTSKNQFSLKVTSVTAADTAVYYCAALSGDHAFDIWGQGTLVTVSS
# VL: not shown
# notes: Same variable regions as Antibody 18
# B4: Antibody 9 (antibody, V domains shown)
# VH: QVQLVQSGAEVKKPGSSVKVSCKASGDTFSNHAINWVRQAPGQGLEWMGGYIPIFGTTNSAQKFRGRVTITADKSTNTAYMALSSLRSEDTAVYYCARGGLAGSHYKNYYYDGMDVWGQGTTVTVSS
# VL: not shown
# notes: Same variable regions as Antibody 21
# B5: Antibody 8 (antibody, V domains shown)
# VH: QVQLQESGPGLVKPSETLSLTCAVSGYSISSGYYWGWIRQPPGKGLDWIGSIYYSGSTYYNPSLKSRVTISVDTSKNQISLKLSSVTAADTAVYYCATTYSDIVTGYYNDAFDIWGQGTMVTVSS
# VL: EIVMTQSPATLSVSPGERATLSCRASQRINSNLAWYQQKPGQAPRLLIYGASTRATGIPARFSGSGSGTEFTLTISSLQSEDFAAYYCQQYDNWPLTFGGGTKVEIK
# notes: Same variable regions as Antibody 20
# B6: Antibody 1 (antibody, V domains shown)
# VH: QVQLVQSGAEVKKPGSSVKVSCKVSGGTFSSYSISWVRQAPGQGLEWMGGIIPIFGTTNYAQKFQGRVTITADESTSTAYMDLSSLKSEDTAMYYCEGGRVGADFDYWGQGTLVTVSS
# VL: SSDLTQGPAVSVALGQTVRITCQGDSLRNYYASWYQQKPGQAPVPVIYGKNDRPSGIPDRFSGSISGNTASLTITGAQAEDEAHYYCNSRDSSGNHVVFGGGTKLTVL
# notes: Same variable regions as Antibody 13
# B7: Antibody 2 (antibody, V domains shown)
# VH: QVQLQESGPGLVKPSQTLSLTCTVSGGSITSDGYHWSWIRQYPGKGLDWIGYIYYTGNTYYNPSLKSRVTISVGTSQNQFSLKLISVTAADTAVYYCARRLSTGPYFDYWGQGTLVTVSS
# VL: QSALTQPASVSGSPGQSITISCTGTSSDVGGYEFVSWYQHHPGKAPKLMIYDVSSRPSGVSNRFSGSKSGNTASLTISGLQAEDEADYYCSSYTRSSTVVFGGGARLTVL
# notes: Same variable regions as Antibody 14
# B8: Antibody 12 (antibody, V domains shown)
# VH: QVQLQESGPGLVKPSETLSLTCGVSGGSISSTNWWSWVRQPPGKGLEWIGEIYQTGSTDYDPSLKSRVTISIDKSKNQFSLKLYSVTAADTAVYYCARRFGELDYWGQGTLVTVSS
# VL: EIVMTQSPATLSVSPGERATLSCRASQSVTSNLAWYQQKPGQAPRLLIYDASTRATGIPARFSGSGSGTEFTLTISSLQSEDFAIYYCQQYNNWPTFGQGTRLEIK
# notes: Same variable regions as Antibody 24
# B9: Antibody 4 (antibody, V domains shown)
# VH: QVQLVESGGGVVQPGRSLRLSCAASGFTFSTYGFHWVRQPPGKGLEWVAVIYYDGINKYYADSVKGRFTISRDNSKNTLFLQMNSLRAEDTAVYYCAESDLDYWGQGTLVTVSS
# VL: EIVLTQSPATLSLSPGERATLSCRASQSVSIYLAWYQQKPGQAPRLLIYDASNRATGIPARFSGSGSGTDFTLTISSLEPEDFAVYYCQQRSNWPLTFGPGTKVDIK
# notes: Same variable regions as Antibody 16
# B10: Antibody 27 (antibody, V domains shown)
# VH: QVQLQQSGPGLVKPSQTLSLTCAISGDSVSNNNAAWNWIRQSPSRGLEWLGGTYYRSKWYNDYAVSVKSRIIINPVTSKNQFSLQLNSVTPEDTAVYYCARGSSWYRFFDYWGQGTLVTVSS
# VL: EIVLTQSPGTLSLSPGERATLSCRASQSVGSSYLAWYQQKPGQAPRLLISGASGRATGIPDRFSGSGSGTDFTLTISRLEPEDFTVYYCQQYGSSPYTFGQGTKLEIK
# notes: Same variable regions as Antibody 33
# B11: Antibody 43 (antibody, V domains shown)
# VH: QVQLVQSGAEVKKPGASVKVSCKASGYTFTSYYIHWVRQAPGQGLEWMGVTSPSGRSTSFAQKFQGRVTMTRDTSTSAVYMDLDSLRSEDTAVYYCARGGVTIHLERRGYFDYWGQGTLVIVSS
# VL: not shown
# notes: Same variable regions as Antibody 44
# B12: Antibody 28 (antibody, V domains shown)
# VH: QVQLQQSGTELVRPGTSVKMSCKAAGYTFTNHWIGWVKQRPGHGLEWIGDIYPGGGYTNYNEKFKGKASLTADTSSTTAYMQLSSLTSEDSAIYYCSRFGDQNWAWFAYWGQGTLVTVSA
# VL: DIQMNQSPSSLSASLGDTITITCRASQNIHMWLSWYQQKPGNIPKLLIFKTSNLHTGVPSRFSGSGSGTDFTLTISSLQPEDIATYYCLQGQSYPFTFGGGTKLEIK
# Molecular target: T1, human Protein S
# Test: SPR Biacore X100; antibody captured by anti-human IgG (Fc); Protein S 2-128 nM; 5 mM CaCl2; 1:1 fit
# Description: Binding characteristics of the Protein S antibodies were also determined. Binding interaction analysis was obtained by Surface Plasmon Resonance in a Biacore X100 instrument. The human anti-IgG (Fc) antibody was immobilized to the carboxymethylated dextran membrane on the sensor chip surface (CM5) via the free amine method for a contact time of 420 seconds. Human anti-IgG antibody at 25 μg/mL in 0.15 M NaCl was immobilized to 9,785 RU in 10 mM sodium acetate pH 5.0.
# Dilution and running buffer were as follows: Hbs−EP+5 mM CaCl₂. Regeneration was obtained by 3 M MgCl₂. Binding constants (ka, kd, and KD) were determined using the Biacore X100 evaluation software, assuming a 1:1 interaction of Protein S and the tested monoclonal antibody under investigation.
Kd [nM],koff [s⁻¹],kon [M⁻¹ s⁻¹],Binder
20,0.005,252000,B1
2.24,0.000569,253000,B2
5.79,0.0016,280000,B3
15.9,0.00336,212000,B4
6.25,0.000823,132000,B5
1.33,0.00039,290000,B6
1.63,0.00056,346000,B7
14.4,0.00947,657000,B8
4.13,0.00165,399000,B9

# Molecular target: T1, human Protein S
# Test: BLI Octet; antibody on anti-human Fc probe; Protein S 7.81-500 nM; 4 mM CaCl2
# Description: (§1) Binding characteristics of the Protein S antibodies were also further characterized using Octet. Using the Octet System (Sartorius), the binding of each antibody to both human and cynomolgus monkey (“cyno” in Table 10) Protein S was determined. The human Fc antibodies were immobilized onto anti-human Fc capture probes by placing the probes into 10 μg/ml antibody solution in 10 mg/ml bovine serum albumin, 20 mM Tris pH 7.0, 150 mM NaCl, and 4 mM calcium chloride. […] Next, the probes were placed into buffer and the dissociation rates were measured.
Kd [nM],koff [s⁻¹],kon [M⁻¹ s⁻¹],Binder
8.18,0.00141,172000,B1
0.0542,8.86e-06,164000,B2
1.47,0.000332,226000,B3
0.533,0.000162,304000,B4
0.514,6.7e-05,131000,B5
0.574,0.000159,277000,B10
1.99,0.000636,320000,B11
< 0.001,< 1e-07,169000,B6
6.78,0.00106,156000,B12
< 0.001,< 1e-07,207000,B7
7.49,0.00232,309000,B8
2.62,0.000708,271000,B9

# Molecular target: T2, cynomolgus monkey Protein S (cynomolgus monkey)
# T2 construct: also called cyno Protein S
# Test: as above
# Description: as §1
Kd [nM],koff [s⁻¹],kon [M⁻¹ s⁻¹],Binder
16.9,0.00232,137000,B1
< 0.001,< 1e-07,127000,B2
2.81,0.000394,140000,B3
0.266,4.42e-05,166000,B4
1.55,0.000133,85800,B5
34.3,0.00233,67900,B10
3.88,0.00104,268000,B11
< 0.001,< 1e-07,139000,B6
9.81,0.00106,109000,B12
< 0.001,< 1e-07,154000,B7
11.3,0.00291,258000,B8
15.3,0.00308,201000,B9
